The values that follow come from paper PMC6631230, “Efficient Screening of Combinatorial Peptide Libraries by Spatially Ordered Beads Immobilized on Conventional Glass Slides” (High-Throughput, 2019).

One experiment has as its target mouse IgG. The following applies: literature IgG-binding peptide listed in Table 3; read-out: KD (equilibrium dissociation constant), literature value; cited from earlier work. The source says:
Table 3 Equilibrium dissociation constants (KD) for peptide mouse IgG interaction determined by SPR. | column: KD, µM

Experiment [1] deals with polyclonal mouse IgG (mouse). The experiment is described as follows: SPR; antibody immobilised by amine coupling on an HC200 chip (Reichert SR7500DC); peptides flowed in HBS-EP (pH 7.4, 0.01 M HEPES, 0.15 M NaCl, 3 mM EDTA, 0.005% Tween 20); multiple kinetics mode. (Surface plasmon resonance follows binding to a sensor surface in real time, without labels.)

As usually defined, the Kd is the constant that tells how readily two partners part at equilibrium. With HFRRHL, the Kd at mouse IgG was 26 µM.

Regarding HWRGWV, the equilibrium dissociation constant (Kd) at mouse IgG was 10 µM.

B1: IgG BP 3 (peptide)
peptide: GEPFSIP
In turn, B1 displayed a dissociation constant (Kd) in experiment [1] of 20 µM.

B2: IgG BP 1 (peptide)
peptide: GRIHGPR
B2: the dissociation constant (Kd) in experiment [1] stood at 14 µM.

B3: IgG BP 2 (peptide)
peptide: GIHPFGR
Regarding B3, in experiment [1], the equilibrium dissociation constant (Kd) stood at 50 µM.

B4: IgG BP 4 (peptide)
peptide: SHSGIFR
For the molecule B4, the dissociation constant Kd in experiment [1] was determined as 60 µM.
